The series deals with the molecule itself. Nature of the series: dynamic light scattering.

B1: Δ68-269 SaMGT (transmembrane domain-less monoglycosyltransferase from S. aureus) (domain or fragment)
chain: DNVDELRKIENKSSFVSADNMPEYVKGAFISMEDERFYNHHGFDLKGTTRALFSTISDRDVQGGSTITQQVVKNYFYDNDRSFTRKVKELFVAHRVEKQYNKNEILSFYLNNIYFGDNQYTLEGAANHYFGTTVNKNSTTMSHITVLQSAILASKVNAPSVYNINNMSENFTQRVSTNLEKMKQQNYINETQYQQAMSQLNR
Consider B1, for which the binding result is “binds”.

The record behind these values is article doi:10.1101/292912 (bioRxiv, 2018).
